Results: patent publication US20250163164A1 (LANOVA MEDICINES DEVELOPMENT, published 2025)
Numbering of substitutions follows the chain as printed.

T1: human interleukin 13 receptor subunit alpha 2 (IL-13RA2) (human, UniProt Q14627 27-380)
T1 construct: whole, on cells; also called IL-13Rα2; CD213A2
T1 sequence (looked up): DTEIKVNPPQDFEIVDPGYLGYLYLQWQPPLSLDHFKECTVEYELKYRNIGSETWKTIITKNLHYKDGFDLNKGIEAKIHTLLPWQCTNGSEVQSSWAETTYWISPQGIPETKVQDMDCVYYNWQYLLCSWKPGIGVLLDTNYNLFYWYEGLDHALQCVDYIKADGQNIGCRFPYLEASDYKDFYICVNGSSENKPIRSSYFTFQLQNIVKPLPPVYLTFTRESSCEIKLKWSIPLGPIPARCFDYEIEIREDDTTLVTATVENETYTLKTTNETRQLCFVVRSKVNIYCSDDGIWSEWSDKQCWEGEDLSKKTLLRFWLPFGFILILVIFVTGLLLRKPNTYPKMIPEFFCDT

B1: 61H8C1 H4L4 hIgG1 (antibody, V domains shown)
VH: QVQLVQSGAEVAKPGASVKLSCKASGYTFTSYWTQWIKQAPGQGLEGIGAIYPGDDDTSYNQKFKGKATLTADKSTSTAYMQLSSLRSEDTAVYYCARGATLLRPFPYWGQGTLVTVSS
VL: DIVMTQSPSSLSTSVGDRVTITCKASQDVSTAVAWYQQKPGKSPKLLIYSASYRYTGVPDRFTGSGSGTDFTFTISSVQPEDFATYSCQQHYSIPPTFGGGTKLEIK
notes: humanized, hIgG1
B2: 57F8H3F1 H2L2 hIgG1 (antibody, V domains shown)
VH: QVQLVQSGAEVVKPGASVKVSCKASGYTFTNYWMNWVRQAPGQGLEWIGRIDAYETETHYNQKFRDRVTMTVDTSTSTVYMELSSLRSEDTAVYYCARGYGHYYGVDYWGQGTLVTVSS
VL: DIQMTQSPSSLSASVGDRVTITCRASENVGNFGISFVNWFQQKPGKAPKLLIYAASNLGSGDPSRFSGSGSGTDFTLTISSLQPEDFATYFCQQSKGVPWTFGQGTKVEIK
notes: humanized, hIgG1
B3: 57F8H3F1 H1L1 hIgG1 (antibody, V domains shown)
VH: B2 VH with V12K, I48M, V72R
VL: B2 VL with F40Y, D62V, F91Y
notes: humanized, hIgG1
B4: 57F8H3F1 H1L2 hIgG1 (antibody, V domains shown)
VH: B2 VH with V12K, I48M, V72R
VL: B2 VL
notes: humanized, hIgG1
B5: 57F8H3F1 H1L3 hIgG1 (antibody, V domains shown)
VH: B2 VH with V12K, I48M, V72R
VL: B2 VL with M4L, S64A, Q104G
notes: humanized, hIgG1
B6: 57F8H3F1 H1L4 hIgG1 (antibody, V domains shown)
VH: B2 VH with V12K, I48M, V72R
VL: B2 VL with Q3V, M4L, V19A, A47P, S64A, Q104G, V108L
notes: humanized, hIgG1
B7: 57F8H3F1 H2L1 hIgG1 (antibody, V domains shown)
VH: B2 VH
VL: B2 VL with F40Y, D62V, F91Y
notes: humanized, hIgG1
B8: 57F8H3F1 H2L3 hIgG1 (antibody, V domains shown)
VH: B2 VH
VL: B2 VL with M4L, S64A, Q104G
notes: humanized, hIgG1
B9: 57F8H3F1 H2L4 hIgG1 (antibody, V domains shown)
VH: B2 VH
VL: B2 VL with Q3V, M4L, V19A, A47P, S64A, Q104G, V108L
notes: humanized, hIgG1
B10: 57F8H3F1 H3L1 hIgG1 (antibody, V domains shown)
VH: B2 VH with V20L, R38K, V68A, M70L, T74K
VL: B2 VL with F40Y, D62V, F91Y
notes: humanized, hIgG1
B11: 57F8H3F1 H3L2 hIgG1 (antibody, V domains shown)
VH: B2 VH with V20L, R38K, V68A, M70L, T74K
VL: B2 VL
notes: humanized, hIgG1
B12: 57F8H3F1 H3L3 hIgG1 (antibody, V domains shown)
VH: B2 VH with V20L, R38K, V68A, M70L, T74K
VL: B2 VL with M4L, S64A, Q104G
notes: humanized, hIgG1
B13: 57F8H3F1 H3L4 hIgG1 (antibody, V domains shown)
VH: B2 VH with V20L, R38K, V68A, M70L, T74K
VL: B2 VL with Q3V, M4L, V19A, A47P, S64A, Q104G, V108L
notes: humanized, hIgG1
B14: 57F8H3F1 H4L1 hIgG1 (antibody, V domains shown)
VH: B2 VH with V20L, R38K, A40R, V68A, T69I, M70L, T74K, V79A, S84R
VL: B2 VL with F40Y, D62V, F91Y
notes: humanized, hIgG1
B15: 57F8H3F1 H4L2 hIgG1 (antibody, V domains shown)
VH: B2 VH with V20L, R38K, A40R, V68A, T69I, M70L, T74K, V79A, S84R
VL: B2 VL
notes: humanized, hIgG1
B16: 57F8H3F1 H4L3 hIgG1 (antibody, V domains shown)
VH: B2 VH with V20L, R38K, A40R, V68A, T69I, M70L, T74K, V79A, S84R
VL: B2 VL with M4L, S64A, Q104G
notes: humanized, hIgG1
B17: 57F8H3F1 H4L4 hIgG1 (antibody, V domains shown)
VH: B2 VH with V20L, R38K, A40R, V68A, T69I, M70L, T74K, V79A, S84R
VL: B2 VL with Q3V, M4L, V19A, A47P, S64A, Q104G, V108L
notes: humanized, hIgG1
B18: 72B4H4 H2L2 hIgG1 (antibody, V domains shown)
VH: B2 VH with E55A, T56G, R65K, H102D, Y103A, V106M, Y108H
VL: B2 VL with N28S, G30D, F32Y, V37M, N57R, L58Q, G97E
notes: humanized, hIgG1
B19: 72B4H4 H1L1 hIgG1 (antibody, V domains shown)
VH: B2 VH with V12K, I48M, E55A, T56G, R65K, V72R, H102D, Y103A, V106M, Y108H
VL: B2 VL with N28S, G30D, F32Y, V37M, F40Y, N57R, L58Q, D62V, F91Y, G97E
notes: humanized, hIgG1
B20: 72B4H4 H1L2 hIgG1 (antibody, V domains shown)
VH: B2 VH with V12K, I48M, E55A, T56G, R65K, V72R, H102D, Y103A, V106M, Y108H
VL: B2 VL with N28S, G30D, F32Y, V37M, N57R, L58Q, G97E
notes: humanized, hIgG1
B21: 72B4H4 H1L3 hIgG1 (antibody, V domains shown)
VH: B2 VH with V12K, I48M, E55A, T56G, R65K, V72R, H102D, Y103A, V106M, Y108H
VL: B2 VL with M4L, N28S, G30D, F32Y, V37M, N57R, L58Q, S64A, G97E, Q104G
notes: humanized, hIgG1
B22: 72B4H4 H1L4 hIgG1 (antibody, V domains shown)
VH: B2 VH with V12K, I48M, E55A, T56G, R65K, V72R, H102D, Y103A, V106M, Y108H
VL: DIVLTQSPSSLSASVGDRATITCRASESVDNYGISFMNWFQQKPGKPPKLLIYAASRQGSGDPARFSGSGSGTDFTLTISSLQPEDFATYFCQQSKEVPWTFGGGTKLEIK
notes: humanized, hIgG1
B23: 72B4H4 H2L1 hIgG1 (antibody, V domains shown)
VH: B2 VH with E55A, T56G, R65K, H102D, Y103A, V106M, Y108H
VL: B2 VL with N28S, G30D, F32Y, V37M, F40Y, N57R, L58Q, D62V, F91Y, G97E
notes: humanized, hIgG1
B24: 72B4H4 H2L3 hIgG1 (antibody, V domains shown)
VH: B2 VH with E55A, T56G, R65K, H102D, Y103A, V106M, Y108H
VL: B22 VL with V3Q, A19V, P47A, L108V
notes: humanized, hIgG1
B25: 72B4H4 H2L4 hIgG1 (antibody, V domains shown)
VH: B2 VH with E55A, T56G, R65K, H102D, Y103A, V106M, Y108H
VL: B22 VL
notes: humanized, hIgG1
B26: 72B4H4 H3L1 hIgG1 (antibody, V domains shown)
VH: QVQLVQSGAEVVKPGASVKLSCKASGYTFTNYWMNWVKQAPGQGLEWIGRIDAYAGETHYNQKFKDRATLTVDKSTSTVYMELSSLRSEDTAVYYCARGYGDAYGMDHWGQGTLVTVSS
VL: B2 VL with N28S, G30D, F32Y, V37M, F40Y, N57R, L58Q, D62V, F91Y, G97E
notes: humanized, hIgG1
B27: 72B4H4 H3L2 hIgG1 (antibody, V domains shown)
VH: B26 VH
VL: B2 VL with N28S, G30D, F32Y, V37M, N57R, L58Q, G97E
notes: humanized, hIgG1
B28: 72B4H4 H3L3 hIgG1 (antibody, V domains shown)
VH: B26 VH
VL: B22 VL with V3Q, A19V, P47A, L108V
notes: humanized, hIgG1

What follows are binders tested against T1, human interleukin 13 receptor subunit … (assay: FACS on A375 cells).
Protocol: A375 cells that endogenously expressed IL-13RA2, were harvested from flasks. 100 μl of 1×10⁶ cells/ml of cells were incubated with primary humanized antibodies in 4-fold serial dilutions starting from 200 nM to 0.003 nM for 30 minutes on ice. After being washed with 200 μl of FACS buffer twice, cells were incubated with secondary antibody for 30 minutes on ice. Cells were washed with 200 μl of FACS buffer twice and analyzed by FACS.

In order of falling EC50:
1. B23  2.75 nM
2. B28  1.66 nM
3. B12  1.62 nM
4. B18  1.48 nM
5. B27  1.44 nM
6. B13  1.3 nM
7. B11  1.25 nM
8. B25  1.18 nM
9. B26  1.14 nM
10. B9  1.01 nM
11. B21  1 nM
12. B22  0.98 nM
13. B6  0.94 nM
14. B8  0.92 nM
15. B17  0.91 nM
16. B2  0.89 nM
17. B24  0.83 nM
18. B5  0.81 nM
19. B20  0.81 nM
20. B16  0.8 nM
21. B4  0.78 nM
22. B15  0.75 nM
23. B10  0.71 nM
24. B3  0.63 nM
25. B19  0.54 nM
26. B14  0.42 nM
27. B7  0.38 nM
28. B1  0.19 nM

In order of rising “Top (MFI)” value:
1. B7  6910 MFI
2. B8  7010 MFI
3. B3  7020 MFI
4. B2  7090 MFI
5. B9  7140 MFI
6. B16  7180 MFI
7. B17  7270 MFI
8. B15  7340 MFI
9. B14  7350 MFI
10. B11  7420 MFI
11. B4  7510 MFI
12. B5  7540 MFI
13. B12  7610 MFI
14. B13  7610 MFI
15. B6  7820 MFI
16. B10  8160 MFI
17. B23  8360 MFI
18. B24  8420 MFI
19. B19  8440 MFI
20. B20  8540 MFI
21. B27  8550 MFI
22. B25  8630 MFI
23. B18  8700 MFI
24. B28  8780 MFI
25. B26  8830 MFI
26. B21  8900 MFI
27. B22  9040 MFI
28. B1  21600 MFI
